Data taken from paper PMC4587348 (Archives of biochemistry and biophysics, 2015).

What was measured:
[1] = target: ScHIcDH (homoisocitrate dehydrogenase from Saccharomyces cerevisiae) (Saccharomyces cerevisiae, UniProt P40495, D271N); assay: initial rate, NADH formation at […] nm, dead-end inhibition; assay type: biochemical
[2] = system: Tyr150; assay: kinetics; conditions: cited from earlier work
[3] = system: Lys206; assay: kinetics; conditions: Steady-state turnover at saturating reactants (V/Et); cited from earlier work

ScHIcDH (homoisocitrate dehydrogenase from Saccharomyces cerevisiae), sequence (P40495 23-371 D271N): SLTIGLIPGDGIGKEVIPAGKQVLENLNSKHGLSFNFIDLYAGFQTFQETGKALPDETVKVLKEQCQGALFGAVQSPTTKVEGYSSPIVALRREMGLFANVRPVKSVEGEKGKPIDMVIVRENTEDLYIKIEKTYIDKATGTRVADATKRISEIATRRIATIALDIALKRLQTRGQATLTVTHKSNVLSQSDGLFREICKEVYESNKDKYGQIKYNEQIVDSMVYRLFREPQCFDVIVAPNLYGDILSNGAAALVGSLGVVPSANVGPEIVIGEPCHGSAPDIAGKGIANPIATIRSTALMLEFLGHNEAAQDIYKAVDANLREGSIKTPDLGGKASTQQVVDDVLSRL

## CC(=O)c1ccc[n+]([C@@H]2O[C@H](COP(=O)([O-])OP(=O)(O)OC[C@H]3O[C@@H](n4cnc5c(N)ncnc54)[C@H](O)[C@@H]3OP(=O)(O)O)[C@@H](O)[C@H]2O)c1 [3-AcPyrADP]
[1]
  Ki: 0.34 ± 0.05 mM

## O=C(O)CS[C@H](C(=O)O)[C@@H](O)C(=O)O [Thiahomoisocitrate]
[1]
  Ki: 20 ± 3 mM

## Homoisocitrate dehydrogenase (ScHIcDH) (Saccharomyces cerevisiae)
[2]; Steady-state turnover. V profile: enzyme saturated with NAD and MgHIc.
  pKa: 9.5

## Homoisocitrate dehydrogenase (ScHIcDH) K206M mutant (Saccharomyces cerevisiae; K206M)
[2]; Steady-state turnover at saturating reactants (V/Et)
  pKa: 9.5

## Homoisocitrate dehydrogenase (ScHIcDH) Y150F mutant (Saccharomyces cerevisiae; Y150F)
[3]
  pKa: 6
